Data on 3 molecules can be found in patent US8609089B2, “Compositions of PD-1 antagonists and methods of use” (Amplimmune, Inc., priority 2008, dated 2013).

The subject of one experiment is AB1-HA tumor. Conditions: CTX treatment at Day 9; van der Most et al. 2009; cited from earlier work.
For a further experiment, the system named is SP-1 cells. In words: Metastatic prostate tumor model, survival. The experiment is classed as in vivo, B10.D2 mice. The note with it: CTX 50 mg/kg Day 5, 12, 19; B7-DC-Ig 5 mg/kg Day 6, 13, 20; SP-1 cells intravenously. The protocol: SP-1 cells were isolated from mouse lungs that were metastasized from TRAMP prostate tumor cell injection. B10.D2 mice were first injected with 3×10^5 SP-1 cells via tail vein injection. On Day 5, 12 and 19, mice were injected with 50 mg/kg of CTX where was indicated. […] Here, “NT” refers to “not treated”.
The CTX mice received 3 doses of CTX, 50 mg/kg, on Day 5, 12 and 19.

Experiment [1] has as its system CT26 colorectal tumor cells. As to the kind of experiment: CT26 subcutaneous established tumor model, tumor eradication. The experiment is classed as in vivo, Balb/C mice. On the procedure:
Mouse colorectal tumor cell line, CT26, was obtained from ATCC. A master cell bank at Passage 4 was generated following ATCC guidelines. […] One vial of tumor cells was thawed from the cryopreserved stocks and grown for two passages prior to inoculation.
CT26 cells were split at 1:5 dilution with 30 mL complete medium (RPMI+10% FBS, 2 mM L-Glu, and 1×P/S) for two days culture or at 1:10 dilution with 30 ml complete medium for 3 days culture.
CT26 cells were harvested by aspirating medium, rinsing the flask with 5 mL PBS, adding 5 mL trypsin, incubating at 37° C. for 2 min, and then neutralizing with 10 mL complete medium. After centrifuge at 600×g (˜1000 rpm) for 5 min, media was aspirated and the cell pellet was resuspended by pipetting with 10 ml plain RPMI. This wash step was repeated for three times.
Cell number and viability of the inoculated cells were analyzed by trypan blue dye staining with proper dilution (e.g. 1:5 dilution, 10 μL cells+40 μL trypan blue) and confirmed by NOVA cell count during the last wash step.
CT26 cells were diluted to 6.7×10^5 cells/mL for initial inoculation with plain RPMI and stored on ice. Typically each mouse was inoculated with 150 μL (1×10^5 cells).
CTX solution was reconstituted by 1×PBS to 4 mg/mL. […]
The same dose was given 2 time a week for 4 weeks, total 8 doses. […] Tumor volume was calculated as following: Tumor volume=π(Dshort)^2×(Dlong)/6=˜0.52×(Dshort)^2×(Dlong)
Mice were euthanized and taken off the study if the tumor volume reached 2000 mm^3 or if there were skin ulcers and infections at the tumor inoculation site.
On day 11 post tumor challenge, mice received a single dose of cyclophosphamide (100 mg/kg) and started treatment with anti-PD-1 antibody (250 ug, Clone G4, Hirano F. et al., 2005 Cancer Research) which was administered 3 times per week for four weeks.
On day 11 post tumor challenge, mice received 100 mg/kg of cyclophosphamide. Anti-CTLA4 (an anti-mouse CTLA4 from hamster hybridoma—ATCC deposit UC10-4F10-11) treatment was started 1 day later, on day 12. Mice were treated with 100 ug of anti-CTLA4, 2 doses per week, for 4 weeks.

The test system of experiment [2] is Treg and CD4+ T cells expressing high PD-1. In words: T cell analysis in CT26 tumor-bearing mice (Treg, PD-1+/CD4+ T cells). Type of experiment: in vivo, Balb/C mice. On the procedure: On Day 9, mice were injected with 100 mg/kg of CTX, IP. […] Two naïve mice and 4 mice from other groups were removed from the study on Day 11 (2 days post CTX) and Day 16 (7 days post CTX) for T cell analysis. […] Mice implanted with tumor cells intended to have more PD-1+/CD4+ T cells in the draining LN compared with naïve mice.

Experiment [3] has as its target T1, CHO cell line constitutively expressing PD-1 (Homo sapiens, UniProt Q15116).
T1 construct: expressed in transfected cells; host or cells: CHO
As to the kind of experiment: Flow cytometry binding to CHO cells expressing PD-1. The note with it: various concentrations. The protocol: (§1) Binding was analyzed by flow cytometry.
For orientation: In flow cytometry, cells or beads pass a laser one at a time.

In experiment [4] the test system is parent CHO cells that do not express PD-1. In words: Flow cytometry binding to parent CHO cells. Conditions: various concentrations. The protocol:
as §1

Another experiment deals with T2, PD-1 (Homo sapiens, UniProt Q15116).
T2 construct: expressed in transfected cells; host or cells: CHO
T2 sequence (Q15116 25-288): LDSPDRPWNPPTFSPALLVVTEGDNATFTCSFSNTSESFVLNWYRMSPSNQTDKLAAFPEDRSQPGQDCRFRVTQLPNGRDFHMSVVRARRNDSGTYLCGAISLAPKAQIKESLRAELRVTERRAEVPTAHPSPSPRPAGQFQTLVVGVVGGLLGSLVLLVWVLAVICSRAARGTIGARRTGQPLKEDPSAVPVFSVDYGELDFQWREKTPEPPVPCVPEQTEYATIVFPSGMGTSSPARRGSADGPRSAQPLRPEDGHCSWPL
In words: Competition with labeled B7-H1-Ig for binding to PD-1 on CHO cells. The note with it: unlabeled competitor at various concentrations, then B7-H1-Ig-APC; MFI. The text has this: B7-H1-Ig was first conjugated with allophycocyanin (APC).

T1 sequence (Q15116 25-288): as above

As to `O=P1(N(CCCl)CCCl)NCCCO1` (stereo not drawn) [CTX, cyclophosphamide, reference compound], the cure rate in the experiment with AB1-HA tumor was 75%. In addition, in the experiment with SP-1 cells, the “mice survived on Day 100” value came to 17%. The “outcome of mice, CTX alone group” value in experiment [1] (CTX 100 mg/kg day 10) is “died as a result of tumor growth or were euthanized”. Also, the “Treg in the spleen vs vehicle-injected tumor-bearing mice” value in experiment [2] (Day 11, 2 days post CTX 100 mg/kg IP) was “significantly lower”.

B1: B7-DC-Ig-APC: B7-DC-Ig conjugated with allophycocyanin (APC) (conjugate)
chain: LFTVTAPKEVYTVDVGSSVSLECDFDRRECTELEGIRASLQKVENDTSLQSERATLLEEQLPLGKALFHIPSVQVRDSGQYRCLVICGAAWDYKYLTVKVKASYMRIDTRILEVPGTGEVQLTCQARGYPLAEVSWQNVSVPANTSHIRTPEGLYQVTSVLRLKPQPSRNFSCMFWNAHMKELTSAIIDPLSRMEPKVPRTWEPRGPTIKPCPPCKCPAPNLLGGPSVFIFPPKIKDVLMISLSPIVTCVVVDVSEDDPDVQISWFVNNVEVHTAQTQTHREDYNSTLRVVSALPIQHQDWMSGKEFKCKVNNKDLPAPIERTISKPKGSVRAPQVYVLPPPEEEMTKKQVTLTCMVTDFMPEDIYVEWTNNGKTELNYKNTEPVLDSDGSYFMYSKLRVEKKNWVERNSYSCSVVHEGLHNHHTTKSFSRTPGK
For the molecule B1, the “binding to CHO.PD-1 cells (median fluorescence intensity)” value in experiment [3] is given as “binds to CHO.PD-1 cells”. The “binding to untransfected CHO cells (median fluorescence intensity)” value in experiment [4] is given as “not untransfected CHO cells”.

B2: B7-DC-Ig: homodimer having 2 copies of SEQ ID NO: 10 linked by a disulfide linkage; mouse B7-DC ECD fused to Fc of mouse IgG2a (protein)
chain: B1 chain
modifications: homodimer via disulfide; Murine B7-DC-Ig fusion protein without signal sequence
notes: mouse B7-DC ECD fused to Fc of mouse IgG2a
As for B2, the “mice survived on Day 100” value in the experiment with SP-1 cells was found to be 17%. The “competition with B7-H1 for binding to PD-1” value with PD-1 is reported as “competes with B7-H1 for binding to PD-1”. In addition, the tumor eradication in experiment [1] (cyclophosphamide 100 mg/kg day 9, 30 μg B7-DC-Ig from Day 10, 2 doses per week, 8 doses) stood at 10%; in experiment [1] (cyclophosphamide 100 mg/kg day 9, 100 μg B7-DC-Ig from Day 10, 2 doses per week, 8 doses), 40%. Also, the “mice that eradicated the tumors” value in experiment [1] (cyclophosphamide 100 mg/kg day 9, 300 μg B7-DC-Ig from Day 10, 2 doses per week, 8 doses) is given as 70%. Further, the “CD4+ T cells expressing high PD-1” value in experiment [2] (Day 16, 7 days post CTX and 6 days post B7-DC-Ig 100 ug, draining LN) is on record as “significantly lowered the CD4+ T cells expressing high PD-1”.
